Measured values reported in US20190048089A1 (Janssen / Centocor, published 2019).

T1: cyno CD40 on cyno spleen B cells (Macaca fascicularis (cynomolgus), UniProt P25942 21-277 (human entry))
T1 chain: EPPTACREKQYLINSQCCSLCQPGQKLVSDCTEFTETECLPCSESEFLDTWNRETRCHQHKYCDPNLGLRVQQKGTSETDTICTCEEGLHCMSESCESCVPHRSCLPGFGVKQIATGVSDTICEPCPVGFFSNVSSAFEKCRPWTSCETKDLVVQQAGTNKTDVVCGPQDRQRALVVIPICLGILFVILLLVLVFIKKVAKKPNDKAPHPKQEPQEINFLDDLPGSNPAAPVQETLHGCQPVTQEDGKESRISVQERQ


Key:
[1] = target: T2, human CD40 (analyte in SPR) (human, UniProt P25942 21-193); experiment: affinity in benchmark table; method not restated (SPR ProteOn of Example 3 presumed); Table 14 benchmark table, not Table 12
T2 construct: also called huCD40

[2] = target: T2, human CD40 (analyte in SPR); experiment: SPR, ProteOn XPR36, mAb captured on anti-human IgG Fc, CD40 as analyte, 25 C, 1:1 Langmuir
Experimental: Affinity of the antibodies to human CD40 was assessed using Surface Plasmon Resonance (SPR) using a ProteOn XPR36 system (BioRad). […] Approximately 5000 RU (response units) of mAbs were immobilized. The kinetic experiments were performed at 25° C. in running buffer (DPBS+0.01% P20+100 μg/ml BSA). To perform kinetic experiments, 200 RU of mAbs were captured followed by injections of analytes (human or cyno CD40) at 5 concentrations (in a 4-fold serial dilution). The association phase was monitored for 3 minutes at 50 μL/min, then followed by 15 minutes of buffer flow (dissociation phase). The chip surface was regenerated with two 18 second pulses of 100 mM H₃PO₄ (Sigma, Cat#7961) at 100 μL/min.
The collected data were processed using ProteOn Manager software. First, the data was corrected for background using inter-spots. Then, double reference subtraction of the data was performed by using the buffer injection for analyte injections. The kinetic analysis of the data was performed using a Langmuir 1:1 binding model. The results were reported in the format of Ka (On-rate), Kd (Off-rate) and KD (equilibrium dissociation constant).

[3] = target: T1, cyno CD40 on cyno spleen B cells; experiment: cell-based or functional assay
[4] = target: T3, human CD40 on cells (human tonsillar B cells, human dendritic cells, HEK-Blue CD40L cells) (human, UniProt P25942 21-277); experiment: cell-based or functional assay
[5] = target: T3, human CD40 on cells (human tonsillar B …); experiment: cell-based or functional assay; remark: listed apart in the source
[6] = target: T3, human CD40 on cells (human tonsillar B …); experiment: cell-based or functional assay; remark: listed apart in the source
[7] = target: T2, human CD40 (analyte in SPR); experiment: affinity in benchmark table; method not restated (SPR ProteOn of Example 3 presumed)
[8] = target: T3, human CD40 on cells (human tonsillar B …); experiment: cell-based or functional assay; remark: listed apart in the source
[9] = target: T1, cyno CD40 on cyno spleen B cells; experiment: cell-based or functional assay

| Binder | Kd [1] | Kd [2] | koff [2] | kon [2] | IC50, sCD40L-driven cyno B-cell proliferation [3] | IC50, mCD40L-driven human B-cell proliferation [4] | IC50, sCD40L-driven human B-cell proliferation [4] | IC50, mCD40L-driven DC IL-12p40 production [5] | IC50, sCD40L-driven DC IL-12p40 production [5] | IC50, B cell proliferation, membrane CD40L, human B-cells [6] | IC50, B cell proliferation, soluble CD40L, human B-cells [6] | Kd [7] | IC50, human DC IL-12p40 production, membrane CD40L [8] | IC50, human DC IL-12p40 production, soluble CD40L [8] | IC50, B cell proliferation, soluble CD40L, cyno B-cells [9] |
| --- | --- | --- | --- | --- | --- | --- | --- | --- | --- | --- | --- | --- | --- | --- | --- |
| C40B176 (antibody, human IgG1, lambda, IgG1sigma) heavy: EVQLVESGGGLVQPGGSLRLSCAASGFTFSSYAMSWVRQAPGKGLEWVSTINAAGGGTYYADSVKGRFTISRDNSKNTLYLQMNSLRAEDTAVYYCAKEGGKYYYYALDVWGQGTTVTVSSASTKGPSVFPLAPSSKSTSGGTAALGCLVKDYFPEPVTVSWNSGALTSGVHTFPAVLQSSGLYSLSSVVTVPSSSLGTQTYICNVNHKPSNTKVDKKVEPKSCDKTHTCPPCPAPEAAGASSVFLFPPKPKDTLMISRTPEVTCVVVDVSAEDPEVKFNWYVDGVEVHNAKTKPREEQYNSTYRVVSVLTVLHQDWLNGKEYKCKVSNKALPSSIEKTISKAKGQPREPQVYTLPPSREEMTKNQVSLTCLVKGFYPSDIAVEWESNGQPENNYKTTPPVLDSDGSFFLYSKLTVDKSRWQQGNVFSCSVMHEALHNHYTQKSLSLSPGK light: SYELTQPPSVSVSPGQTASITCSGDKLGDKYAAWYQQKPGQSPVLVIYQDSRRPSGIPERFSGSNSGNTATLTISGTQAMDEADYYCQAWASSTVVFGGGTKLTVLGQPKAAPSVTLFPPSSEELQANKATLVCLISDFYPGAVTVAWKADSSPVKAGVETTTPSKQSNNKYAASSYLSLTPEQWKSHRSYSCQVTHEGSTVEKTVAPTECS | 0.0496 nM | 0.107 nM | 0.000307 s⁻¹ | 2.86e+06 M⁻¹ s⁻¹ | 0.108 nM | 0.181 nM | 0.132 nM | 0.245 nM | 0.22 nM |  |  |  |  |  |  |
| Novartis CFZ533 (antibody, human IgG1, kappa, N297A, V domains shown, Benchmark) VH: QVQLVESGGGVVQPGRSLRLSCAASGFTFSSYGMHWVRQAPGKGLEWVAVISYEESNRYHADSVKGRFTISRDNSKITLYLQMNSLRTEDTAVYYCARDGGIAAPGPDYWGQGTLVTVSS VL: DIVMTQSPLSLTVTPGEPASISCRSSQSLLYSNGYNYLDWYLQKPGQSPQVLISLGSNRASGVPDRFSGSGSGTDFTLKISRVEAEDVGVYYCMQARQTPFTFGPGTKVDIRR |  |  |  |  |  |  |  |  |  | 0.279 nM | 0.223 nM | 0.00936 nM | 0.948 nM | 0.32 nM |  |
| Antibody D (antibody, human IgG1, kappa, L234A L235A, V domains shown, Benchmark; also called antibody B IgG1KOb (U.S. Pat. No. 8,591,900)) VH: EVQLVESGGGLVKPGGSLRLSCAASGFTFSDYGMHWVRQAPGKGLEWVAYISSGNRIIYYADTVKGRFTISRDNAKNSLYLQMNSLRAEDTAVYYCARQDGYRYAMDYWGQGTLVTVSS VL: DIVMTQSPDSLAVSLGEKVTINCKSSQSLLNSGNQKNYLTWHQQKPGQPPKLLIYWTSTRESGVPDRFSGSGSGTDFTLTISSLQAEDVAVYYCQNDYTYPLTFGGGTKVEIKR |  |  |  |  |  |  |  |  |  | 1.93 nM | 0.68 nM | 0.58 nM | 3.63 nM | 0.781 nM |  |
| Astellas/Kirin ASKP-1240 (antibody, human IgG4 S228P, kappa, V domains shown, Benchmark) VH: QLQLQESGPGLLKPSETLSLTCTVSGGSISSPGYYGGWIRQPPGKGLEWIGSIYKSGSTYHNPSLKSRVTISVDTSKNQFSLKLSSVTAADTAVYYCTRPVVRYFGWFDPWGQGTLVTVSS VL: AIQLTQSPSSLSASVGDRVTITCRASQGISSALAWYQQKPGKAPKLLIYDASNLESGVPSRFSGSGSGTDFTLTISSLQPEDFATYYCQQFNSYPTFGQGTKVEIKR |  |  |  |  |  |  |  |  |  | 0.132 nM | 0.079 nM | 0.181 nM | 0.28 nM | 0.119 nM | 0.146 nM |
